Where a chain is given by its changes, count along the chain named.
How the values were obtained:
[1] = test system: T1, RK(PEG2-Biotin)APGKLTCLASYCWLFWTGIA
T1 sequence: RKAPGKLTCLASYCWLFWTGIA

[2] = test system: T2, RRAPGKLTCLASYCWLFWTK(PEG2-Biotin)IA
T2 sequence: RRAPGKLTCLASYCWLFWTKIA

KLTCLASYCQLV = test system: T3, KLTCLASYCQLV
T3 sequence: KLTCLASYCQLV

[3] = test system: T4, SKQGRPISPDrRAAGKLTCLASYCWLFW
T4 sequence: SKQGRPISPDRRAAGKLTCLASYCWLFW

KLTCLASYCWIF = test system: T5, KLTCLASYCWIF
T5 sequence: KLTCLASYCWIF

[4] = test system: T6, RRAPGKLTCLASK(PEG2-Biotin)CWLFWTGIA
T6 sequence: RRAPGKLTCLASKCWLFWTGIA

[5] = test system: T7, RRAPGKLTCLASYCWLF WTGYA SGKPSRVYVI
T7 sequence: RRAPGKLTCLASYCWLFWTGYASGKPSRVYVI

[6] = test system: T8, PRIRTVGPGSRSASGKLTCAASYCWLFWTGIA
T8 sequence: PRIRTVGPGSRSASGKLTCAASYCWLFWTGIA

APGKLQCLASYCWLFWTGIA = test system: T9, APGKLQCLASYCWLFWTGIA
T9 sequence: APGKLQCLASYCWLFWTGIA

KLTCQASYCWLF = test system: T10, KLTCQASYCWLF
T10 sequence: KLTCQASYCWLF

[7] = test system: T11, Palmitoyl-(PEG)27(PEG)27-KLTCLASYCWLF
T11 sequence: KLTCLASYCWLF

[8] = test system: T12, RRAPGKCTALASYAWCFWTGIA-CONH2
T12 sequence: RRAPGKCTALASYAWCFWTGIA

[9] = test system: T13, SKQARPISPDrRAAGKLTCLASYCWLFWTGIA
T13 sequence: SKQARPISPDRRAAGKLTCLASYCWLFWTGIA

[10] = test system: T14, RRAPGKLTCLASYCWLF WTGLA PGRGQGGVAG
T14 sequence: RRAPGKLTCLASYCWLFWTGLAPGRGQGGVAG

KLT-HCy-LASYCWLF = test system: T15, KLT-HCy-LASYCWLF
T15 sequence: KLTXLASYCWLF

RRAPGKLQCLASYCWLFATAIA = test system: T16, RRAPGKLQCLASYCWLFATAIA
T16 sequence: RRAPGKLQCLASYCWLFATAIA

[11] = test system: T17, RRAPGKLTCLASYCWLF WTGLS RYQWQAQEDV
T17 sequence: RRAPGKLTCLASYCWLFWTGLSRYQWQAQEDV

MeLys-LTCLASYCWLF = test system: T18, MeLys-LTCLASYCWLF
T18 sequence: KLTCLASYCWLF

KLTCLASYCW-MeLeu-F = test system: T19, KLTCLASYCW-MeLeu-F
T19 sequence: KLTCLASYCWLF

[12] = test system: T20, PNLLRVRTSE VRNPG KLTCLASYCWLFWTGIA
T20 sequence: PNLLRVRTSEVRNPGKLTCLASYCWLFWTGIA

[13] = test system: T21, PRIRTSGPGSRSASGKLTCLASYCWLFWTGIA
T21 sequence: T8 sequence with V6S, A20L

[14] = test system: T22, RRAPGKK(PEG2-Biotin)TCLASYCWLFWTGIA
T22 sequence: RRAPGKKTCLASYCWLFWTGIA

GASGRRRTCVASYCLLFQSGLP = test system: T23, GASGRRRTCVASYCLLFQSGLP
T23 sequence: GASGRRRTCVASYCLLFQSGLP

[15] = test system: T24, ═N-O-(CH2)3-O-N═(COCH2CH2CO-KLTCLASYCWLF)2
T24 sequence: KLTCLASYCWLF

[16] = test system: T25, RRAPG-k-NMeLeu-TCLASYCWLFWTGIA
T25 sequence: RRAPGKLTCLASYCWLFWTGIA

RRAPGKLQCLASYCWLFWT = test system: T26, RRAPGKLQCLASYCWLFWT
T26 sequence: RRAPGKLQCLASYCWLFWT

RLTCLASYCWLF = test system: T27, RLTCLASYCWLF
T27 sequence: RLTCLASYCWLF

[17] = test system: T28, R-MeArg-APGKLTCLASYCWLFWTGIA
T28 sequence: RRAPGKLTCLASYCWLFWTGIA

RRApGKLTCLASYCWLFWTGIA = test system: T29, RRApGKLTCLASYCWLFWTGIA
T29 sequence: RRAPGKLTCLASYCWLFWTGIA

[18] = test system: T30, RRAK(PEG2-Biotin)GKLTCLASYCWLFWTGIA
T30 sequence: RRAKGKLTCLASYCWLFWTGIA

[19] = test system: T31, RRAPGKLTCLASYCWLFWTGIA-PEG4
T31 sequence: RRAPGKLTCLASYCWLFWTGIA

[20] = test system: T32, PRIRTVGPGSRSASGKLTCLASYCWLAWTGIA
T32 sequence: T8 sequence with A20L, F27A

[21] = test system: T33, SKQGRPISPDrRAAGKLTCLASYCWLFWTG
T33 sequence: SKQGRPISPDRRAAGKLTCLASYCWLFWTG

[22] = test system: T34, RRAPGKLTCLAS-MeTyr-CWLFWTGIA
T34 sequence: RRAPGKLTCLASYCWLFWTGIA

[23] = test system: T35, RRAPGKLTCLASYCWLF LGGIA PEGASTRTAN
T35 sequence: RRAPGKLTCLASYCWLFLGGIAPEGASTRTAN

[24] = test system: T36, MQIRQAHQPR RSAPQ KLTCLASYCWLFWTGIA
T36 sequence: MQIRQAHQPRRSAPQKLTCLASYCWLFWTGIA

[25] = test system: T37, RRAPGKLTCLASYCWLF VTGTA HAPRVAPAPA
T37 sequence: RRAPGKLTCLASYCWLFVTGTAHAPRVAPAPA

ALTCLASYCWLF = test system: T38, ALTCLASYCWLF
T38 sequence: ALTCLASYCWLF

[26] = test system: T39, RRAPGKLTCLASYCWLF WAGIA PHRPLKERVR
T39 sequence: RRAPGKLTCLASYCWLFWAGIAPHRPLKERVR

GKLQCLASYCWLFWTGIA = test system: T40, GKLQCLASYCWLFWTGIA
T40 sequence: GKLQCLASYCWLFWTGIA

RSTVSQMRCLASYCWLFPALVS = test system: T41, RSTVSQMRCLASYCWLFPALVS
T41 sequence: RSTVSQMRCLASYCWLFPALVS

Orn-LTCLASYCWLF = test system: T42, Orn-LTCLASYCWLF
T42 sequence: XLTCLASYCWLF

RAPGKLQCLASYCWLFWTGIA = test system: T43, RAPGKLQCLASYCWLFWTGIA
T43 sequence: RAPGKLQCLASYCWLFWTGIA

[27] = test system: T44, PRIRTVGPGSRSASGKLTCLASACWLFWTGIA
T44 sequence: T8 sequence with A20L, Y23A

RRAPGKLQCLASYCWLFW = test system: T45, RRAPGKLQCLASYCWLFW
T45 sequence: RRAPGKLQCLASYCWLFW

[28] = test system: T46, Biotin-PEG2-LYTAWIKCQFARLPGCALSGRW
T46 sequence: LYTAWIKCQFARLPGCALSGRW

KKTCVASFCQMI = test system: T47, KKTCVASFCQMI
T47 sequence: KKTCVASFCQMI

[29] = test system: T48, RRAPGKLTCLASYCWLK(PEG2-Biotin)WTGIA
T48 sequence: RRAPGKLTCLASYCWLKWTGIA

RRRRRKLTCLASYCWLFRRRRR = test system: T49, RRRRRKLTCLASYCWLFRRRRR
T49 sequence: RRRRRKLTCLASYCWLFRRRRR

[30] = test system: T50, GRAMAAEPWP RQAPG KLTCLASYCWLFWTGIA
T50 sequence: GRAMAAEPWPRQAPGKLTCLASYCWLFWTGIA

human Factor IXa
Vmax, FXa generation assay; (++) means 1-2 [1]: (++) | Vmax, FXa generation assay [2]: > 2 | Vmax, FXa generation assay (KLTCLASYCQLV): > 2 | Vmax, FXa generation assay [3]: > 3 | Vmax, FXa generation assay (KLTCLASYCWIF): > 2 | Vmax, FXa generation assay; (++) means 1-2 [4]: (++) | Vmax, FXa generation assay [5]: > 3 | Vmax, FXa generation assay [6]: > 2 | Vmax, FXa generation assay; (++) means 1-2 (APGKLQCLASYCWLFWTGIA): (++) | Vmax, FXa generation assay; (++) means 1-2 (KLTCQASYCWLF): (++) | Vmax, FXa generation assay [7]: > 0.3 | Vmax, FXa generation assay; (++) means 1-2 [8]: (++) | Vmax, FXa generation assay [9]: > 3 | Vmax, FXa generation assay [10]: > 3 | Vmax, FXa generation assay (KLT-HCy-LASYCWLF): > 2 | Vmax, FXa generation assay (RRAPGKLQCLASYCWLFATAIA): > 3 | Vmax, FXa generation assay [11]: > 2 | Vmax, FXa generation assay; (++) means 1-2 (MeLys-LTCLASYCWLF): (++) | Vmax, FXa generation assay (KLTCLASYCW-MeLeu-F): > 2 | Vmax, FXa generation assay; (++) means 1-2 [12]: (++) | Vmax, FXa generation assay [13]: > 3 | Vmax, FXa generation assay [14]: > 2 | Vmax, FXa generation assay (GASGRRRTCVASYCLLFQSGLP): > 0.1 | Vmax, FXa generation assay [15]: > 3 | Vmax, FXa generation assay [16]: > 3 | Vmax, FXa generation assay (RRAPGKLQCLASYCWLFWT): > 2 | Vmax, FXa generation assay (RLTCLASYCWLF): > 2 | Vmax, FXa generation assay; (++) means 1-2 [17]: (++) | Vmax, FXa generation assay; (++) means 1-2 (RRApGKLTCLASYCWLFWTGIA): (++) | Vmax, FXa generation assay; (++) means 1-2 [18]: (++) | Vmax, FXa generation assay [19]: > 2 | Vmax, FXa generation assay [20]: > 3 | Vmax, FXa generation assay [21]: > 2 | Vmax, FXa generation assay; (++) means 1-2 [22]: (++) | Vmax, FXa generation assay [23]: > 3 | Vmax, FXa generation assay [24]: > 2 | Vmax, FXa generation assay [25]: > 3 | Vmax, FXa generation assay; (++) means 1-2 (ALTCLASYCWLF): (++) | Vmax, FXa generation assay [26]: > 2 | Vmax, FXa generation assay (GKLQCLASYCWLFWTGIA): > 2 | Vmax, FXa generation assay; (++) means 1-2 (RSTVSQMRCLASYCWLFPALVS): (++) | Vmax, FXa generation assay; (++) means 1-2 (Orn-LTCLASYCWLF): (++) | Vmax, FXa generation assay; (++) means 1-2 (RAPGKLQCLASYCWLFWTGIA): (++) | Vmax, FXa generation assay; (++) means 1-2 [27]: (++) | Vmax, FXa generation assay (RRAPGKLQCLASYCWLFW): > 2 | Vmax, FXa generation assay [28]: > 1.5 | Vmax, FXa generation assay (KKTCVASFCQMI): > 4 | Vmax, FXa generation assay [29]: > 2 | Vmax, FXa generation assay (RRRRRKLTCLASYCWLFRRRRR): > 2 | Vmax, FXa generation assay [30]: > 2
